Test results from PMC6307885, “Spatiotemporal control of axillary meristem formation by interacting transcriptional regulators” (Development (Cambridge, England), 2018).

Legend:
[1] = biological target: T1, BD-REV (full-length REV fused to the binding domain of GAL4) (Arabidopsis thaliana, UniProt Q9SE43 1-842); test: cell-based or functional assay
T1 sequence (looked up): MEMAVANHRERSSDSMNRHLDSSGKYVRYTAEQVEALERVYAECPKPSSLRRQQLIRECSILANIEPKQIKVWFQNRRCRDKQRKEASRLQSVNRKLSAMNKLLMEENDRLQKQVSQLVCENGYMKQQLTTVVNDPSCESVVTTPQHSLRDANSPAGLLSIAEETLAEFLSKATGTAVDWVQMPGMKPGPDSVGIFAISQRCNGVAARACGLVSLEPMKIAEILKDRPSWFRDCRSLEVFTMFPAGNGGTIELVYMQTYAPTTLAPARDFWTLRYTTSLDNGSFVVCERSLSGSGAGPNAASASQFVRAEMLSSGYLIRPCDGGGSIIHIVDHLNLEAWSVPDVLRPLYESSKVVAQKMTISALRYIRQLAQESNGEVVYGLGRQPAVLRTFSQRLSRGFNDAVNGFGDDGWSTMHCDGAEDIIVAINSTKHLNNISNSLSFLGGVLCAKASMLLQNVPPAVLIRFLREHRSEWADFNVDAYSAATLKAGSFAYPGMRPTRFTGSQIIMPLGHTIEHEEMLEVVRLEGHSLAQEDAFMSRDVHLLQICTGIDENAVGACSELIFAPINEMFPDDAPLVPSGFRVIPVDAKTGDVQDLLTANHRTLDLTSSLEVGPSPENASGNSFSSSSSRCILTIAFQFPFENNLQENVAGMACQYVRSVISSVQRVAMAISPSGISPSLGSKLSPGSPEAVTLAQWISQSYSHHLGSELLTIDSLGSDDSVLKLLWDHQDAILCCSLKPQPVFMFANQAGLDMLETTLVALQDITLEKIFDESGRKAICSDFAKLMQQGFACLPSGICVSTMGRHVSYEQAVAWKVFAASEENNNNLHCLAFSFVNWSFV

[2] = biological target: T2, DRN-GFP (DORNRÖSCHEN fused to GFP, from pDRN::DRN-GFP plants) (Arabidopsis thaliana, UniProt Q9SAD4 1-328); test: co-IP; anti-GFP on Protein A sepharose beads, blot probed with anti-MYC; extracts of young (younger than P10) and mature (older than P10) leaf axil-enriched tissues of pDRN::DRN-GFP p35S::REV-MYC plants, equal amounts of DRN-GFP; 20 mM HEPES pH 7.5, 40 mM KCl, 1 mM EDTA, 1% Triton X-100; conditions: partners not purified
T2 construct: DORNRÖSCHEN (DRN/ESR1), AP2 family transcription factor, Arabidopsis thaliana, At1g12980; Cole et al., 2009; also called ESR1; ENHANCER OF SHOOT …ON 1; source: Arabidopsis pDRN::DRN-GFP p35S::REV-MYC plants, extract of leaf axil-enriched shoot tissues
T2 sequence (Q9SAD4 whole entry, the tested form may be a part): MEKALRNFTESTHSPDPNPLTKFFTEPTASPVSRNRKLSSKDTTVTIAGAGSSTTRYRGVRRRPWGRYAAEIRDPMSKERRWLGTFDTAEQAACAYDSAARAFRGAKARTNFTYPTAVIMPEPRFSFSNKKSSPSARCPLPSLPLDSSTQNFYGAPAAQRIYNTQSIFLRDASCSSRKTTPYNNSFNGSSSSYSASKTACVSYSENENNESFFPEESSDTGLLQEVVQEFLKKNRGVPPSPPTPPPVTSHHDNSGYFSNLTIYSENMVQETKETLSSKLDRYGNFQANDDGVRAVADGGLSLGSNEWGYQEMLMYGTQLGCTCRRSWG

B1: AD-DRNL (full-length DRNL fused to the activation domain of GAL4) (natural protein)
chain: not shown
[1]
  pSTM::Luc reporter (LUC/GUS) in Arabidopsis protoplasts; co-transformation of p35S::DRNL and p35S::REV against transformation with one alone: ~2.5 fold

B2: AD-DRN (full-length DRN fused to the activation domain of GAL4) (natural protein)
chain: not shown
[1]
  pSTM::Luc reporter (LUC/GUS) in Arabidopsis protoplasts; co-transformation of p35S::DRN and p35S::REV against transformation with one alone: ~2.5 fold

B3: REV-MYC (REVOLUTA with MYC tag, from p35S::REV-MYC plants) (natural protein, Arabidopsis thaliana, UniProt Q9SE43 1-842, looked up)
chain: T1 sequence (looked up)
notes: REVOLUTA (REV), class III homeodomain-leucine zipper transcription factor, Arabidopsis thaliana, At5g60690; source: Arabidopsis pDRN::DRN-GFP p35S::REV-MYC plants, extract of leaf axil-enriched shoot tissues
[2]
  fold stronger co-precipitated REV-MYC band, old against young leaf axil-enriched tissues: ~3 fold
